# Source: patent publication US20120219562A1 (AbbVie / Abbott, published 2012)
# T1: human interleukin 12 (p70 heterodimer of p35 and p40) (human, UniProt P29459 23-219; P29460 23-328)
# T1 construct: Recombinant human IL-12; also called hIL-12; IL-12
# T1 sequence (looked up) 1: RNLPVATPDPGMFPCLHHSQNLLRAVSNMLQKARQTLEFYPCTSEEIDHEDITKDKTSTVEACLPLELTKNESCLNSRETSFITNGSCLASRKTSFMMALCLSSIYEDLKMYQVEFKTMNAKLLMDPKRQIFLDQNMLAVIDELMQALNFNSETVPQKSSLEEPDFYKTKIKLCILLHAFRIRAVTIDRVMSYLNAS
# T1 sequence (looked up) 2: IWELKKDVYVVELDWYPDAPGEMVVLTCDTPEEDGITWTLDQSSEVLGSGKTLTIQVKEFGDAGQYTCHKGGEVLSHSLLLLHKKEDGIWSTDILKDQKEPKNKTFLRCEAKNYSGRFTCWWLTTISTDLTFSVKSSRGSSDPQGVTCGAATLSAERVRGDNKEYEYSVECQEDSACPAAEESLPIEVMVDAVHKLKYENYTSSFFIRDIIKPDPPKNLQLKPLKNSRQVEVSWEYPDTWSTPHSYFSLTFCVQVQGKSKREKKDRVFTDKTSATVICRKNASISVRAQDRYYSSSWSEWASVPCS
# Target: T1, human interleukin 12 (p70 heterodimer …)
# Assay: SPR (BIAcore), off-rate
row,koff [s⁻¹],Binder
1,0.00243,"SEQ ID NO: 512 (Y61, K at L50) (antibody, V domains shown) VH: QVQLVQSGGGVVQPGRSLRLSCAASGFTFSSYGMHWVRQAPGKGLEWVAFIRYDGSNKYYADSVKGRFTISRDNSKNTLYLQMKSLRAEDTAVYYCKTHGSHDNWGQGTMVTVSS VL: SYVLTQPPSVSGTPGQRVTISCSGGRSNIGSNTVKWYQQLPGTAPKLLIYKNDQRPSGVPDRFSGSKSGTSASLAITGVQAEDEADYYCQSYDRGTHPALLFGTGTKVTVLG"
2,0.000382,"SEQ ID NO: 524 (Y61, W at L50) (antibody, V domains shown) VH: QVQLVQSGGGVVQPGRSLRLSCAASGFTFSSYGMHWVRQAPGKGLEWVAFIRYDGSNKYYADSVKGRFTISRDNSKNTLYLQMKSLRAEDTAVYYCKTHGSHDNWGQGTMVTVSS VL: SYVLTQPPSVSGTPGQRVTISCSGGRSNIGSNTVKWYQQLPGTAPKLLIYWNDQRPSGVPDRFSGSKSGTSASLAITGVQAEDEADYYCQSYDRGTHPALLFGTGTKVTVLG"
3,0.000953,"SEQ ID NO: 520 (Y61, M at L50) (antibody, V domains shown) VH: QVQLVQSGGGVVQPGRSLRLSCAASGFTFSSYGMHWVRQAPGKGLEWVAFIRYDGSNKYYADSVKGRFTISRDNSKNTLYLQMKSLRAEDTAVYYCKTHGSHDNWGQGTMVTVSS VL: SYVLTQPPSVSGTPGQRVTISCSGGRSNIGSNTVKWYQQLPGTAPKLLIYMNDQRPSGVPDRFSGSKSGTSASLAITGVQAEDEADYYCQSYDRGTHPALLFGTGTKVTVLG"
4,0.000444,"SEQ ID NO: 513 (Y61, R at L50) (antibody, V domains shown) VH: QVQLVQSGGGVVQPGRSLRLSCAASGFTFSSYGMHWVRQAPGKGLEWVAFIRYDGSNKYYADSVKGRFTISRDNSKNTLYLQMKSLRAEDTAVYYCKTHGSHDNWGQGTMVTVSS VL: SYVLTQPPSVSGTPGQRVTISCSGGRSNIGSNTVKWYQQLPGTAPKLLIYRNDQRPSGVPDRFSGSKSGTSASLAITGVQAEDEADYYCQSYDRGTHPALLFGTGTKVTVLG"
5,0.00041,"SEQ ID NO: 523 (Y61, P at L50) (antibody, V domains shown) VH: QVQLVQSGGGVVQPGRSLRLSCAASGFTFSSYGMHWVRQAPGKGLEWVAFIRYDGSNKYYADSVKGRFTISRDNSKNTLYLQMKSLRAEDTAVYYCKTHGSHDNWGQGTMVTVSS VL: SYVLTQPPSVSGTPGQRVTISCSGGRSNIGSNTVKWYQQLPGTAPKLLIYPNDQRPSGVPDRFSGSKSGTSASLAITGVQAEDEADYYCQSYDRGTHPALLFGTGTKVTVLG"
6,0.000974,"SEQ ID NO: 533 (Y61, P at L53) (antibody, V domains shown) VH: QVQLVQSGGGVVQPGRSLRLSCAASGFTFSSYGMHWVRQAPGKGLEWVAFIRYDGSNKYYADSVKGRFTISRDNSKNTLYLQMKSLRAEDTAVYYCKTHGSHDNWGQGTMVTVSS VL: SYVLTQPPSVSGTPGQRVTISCSGGRSNIGSNTVKWYQQLPGTAPKLLIYGNDPRPSGVPDRFSGSKSGTSASLAITGVQAEDEADYYCQSYDRGTHPALLFGTGTKVTVLG"
7,0.000834,"SEQ ID NO: 530 (Y61, T at L53) (antibody, V domains shown) VH: QVQLVQSGGGVVQPGRSLRLSCAASGFTFSSYGMHWVRQAPGKGLEWVAFIRYDGSNKYYADSVKGRFTISRDNSKNTLYLQMKSLRAEDTAVYYCKTHGSHDNWGQGTMVTVSS VL: SYVLTQPPSVSGTPGQRVTISCSGGRSNIGSNTVKWYQQLPGTAPKLLIYGNDTRPSGVPDRFSGSKSGTSASLAITGVQAEDEADYYCQSYDRGTHPALLFGTGTKVTVLG"
8,0.0012,"SEQ ID NO: 522 (Y61, I at L50) (antibody, V domains shown) VH: QVQLVQSGGGVVQPGRSLRLSCAASGFTFSSYGMHWVRQAPGKGLEWVAFIRYDGSNKYYADSVKGRFTISRDNSKNTLYLQMKSLRAEDTAVYYCKTHGSHDNWGQGTMVTVSS VL: SYVLTQPPSVSGTPGQRVTISCSGGRSNIGSNTVKWYQQLPGTAPKLLIYINDQRPSGVPDRFSGSKSGTSASLAITGVQAEDEADYYCQSYDRGTHPALLFGTGTKVTVLG"
9,0.000348,"SEQ ID NO: 515 (Y61, Q at L50) (antibody, V domains shown) VH: QVQLVQSGGGVVQPGRSLRLSCAASGFTFSSYGMHWVRQAPGKGLEWVAFIRYDGSNKYYADSVKGRFTISRDNSKNTLYLQMKSLRAEDTAVYYCKTHGSHDNWGQGTMVTVSS VL: SYVLTQPPSVSGTPGQRVTISCSGGRSNIGSNTVKWYQQLPGTAPKLLIYQNDQRPSGVPDRFSGSKSGTSASLAITGVQAEDEADYYCQSYDRGTHPALLFGTGTKVTVLG"
10,0.000866,"SEQ ID NO: 526 (Y61, S at L53) (antibody, V domains shown) VH: QVQLVQSGGGVVQPGRSLRLSCAASGFTFSSYGMHWVRQAPGKGLEWVAFIRYDGSNKYYADSVKGRFTISRDNSKNTLYLQMKSLRAEDTAVYYCKTHGSHDNWGQGTMVTVSS VL: SYVLTQPPSVSGTPGQRVTISCSGGRSNIGSNTVKWYQQLPGTAPKLLIYGNDSRPSGVPDRFSGSKSGTSASLAITGVQAEDEADYYCQSYDRGTHPALLFGTGTKVTVLG"
11,0.000554,"SEQ ID NO: 531 (Y61, A at L53) (antibody, V domains shown) VH: QVQLVQSGGGVVQPGRSLRLSCAASGFTFSSYGMHWVRQAPGKGLEWVAFIRYDGSNKYYADSVKGRFTISRDNSKNTLYLQMKSLRAEDTAVYYCKTHGSHDNWGQGTMVTVSS VL: SYVLTQPPSVSGTPGQRVTISCSGGRSNIGSNTVKWYQQLPGTAPKLLIYGNDARPSGVPDRFSGSKSGTSASLAITGVQAEDEADYYCQSYDRGTHPALLFGTGTKVTVLG"
12,0.000855,"SEQ ID NO: 532 (Y61, I at L53) (antibody, V domains shown) VH: QVQLVQSGGGVVQPGRSLRLSCAASGFTFSSYGMHWVRQAPGKGLEWVAFIRYDGSNKYYADSVKGRFTISRDNSKNTLYLQMKSLRAEDTAVYYCKTHGSHDNWGQGTMVTVSS VL: SYVLTQPPSVSGTPGQRVTISCSGGRSNIGSNTVKWYQQLPGTAPKLLIYGNDIRPSGVPDRFSGSKSGTSASLAITGVQAEDEADYYCQSYDRGTHPALLFGTGTKVTVLG"
13,0.000272,"SEQ ID NO: 516 (Y61, T at L50) (antibody, V domains shown) VH: QVQLVQSGGGVVQPGRSLRLSCAASGFTFSSYGMHWVRQAPGKGLEWVAFIRYDGSNKYYADSVKGRFTISRDNSKNTLYLQMKSLRAEDTAVYYCKTHGSHDNWGQGTMVTVSS VL: SYVLTQPPSVSGTPGQRVTISCSGGRSNIGSNTVKWYQQLPGTAPKLLIYTNDQRPSGVPDRFSGSKSGTSASLAITGVQAEDEADYYCQSYDRGTHPALLFGTGTKVTVLG"
14,0.000614,"SEQ ID NO: 528 (Y61, R at L53) (antibody, V domains shown) VH: QVQLVQSGGGVVQPGRSLRLSCAASGFTFSSYGMHWVRQAPGKGLEWVAFIRYDGSNKYYADSVKGRFTISRDNSKNTLYLQMKSLRAEDTAVYYCKTHGSHDNWGQGTMVTVSS VL: SYVLTQPPSVSGTPGQRVTISCSGGRSNIGSNTVKWYQQLPGTAPKLLIYGNDRRPSGVPDRFSGSKSGTSASLAITGVQAEDEADYYCQSYDRGTHPALLFGTGTKVTVLG"
15,0.000616,"SEQ ID NO: 521 (Y61, L at L50) (antibody, V domains shown) VH: QVQLVQSGGGVVQPGRSLRLSCAASGFTFSSYGMHWVRQAPGKGLEWVAFIRYDGSNKYYADSVKGRFTISRDNSKNTLYLQMKSLRAEDTAVYYCKTHGSHDNWGQGTMVTVSS VL: SYVLTQPPSVSGTPGQRVTISCSGGRSNIGSNTVKWYQQLPGTAPKLLIYLNDQRPSGVPDRFSGSKSGTSASLAITGVQAEDEADYYCQSYDRGTHPALLFGTGTKVTVLG"
16,0.000305,"SEQ ID NO: 514 (Y61, N at L50) (antibody, V domains shown) VH: QVQLVQSGGGVVQPGRSLRLSCAASGFTFSSYGMHWVRQAPGKGLEWVAFIRYDGSNKYYADSVKGRFTISRDNSKNTLYLQMKSLRAEDTAVYYCKTHGSHDNWGQGTMVTVSS VL: SYVLTQPPSVSGTPGQRVTISCSGGRSNIGSNTVKWYQQLPGTAPKLLIYNNDQRPSGVPDRFSGSKSGTSASLAITGVQAEDEADYYCQSYDRGTHPALLFGTGTKVTVLG"
17,0.000385,"SEQ ID NO: 519 (Y61, V at L50) (antibody, V domains shown) VH: QVQLVQSGGGVVQPGRSLRLSCAASGFTFSSYGMHWVRQAPGKGLEWVAFIRYDGSNKYYADSVKGRFTISRDNSKNTLYLQMKSLRAEDTAVYYCKTHGSHDNWGQGTMVTVSS VL: SYVLTQPPSVSGTPGQRVTISCSGGRSNIGSNTVKWYQQLPGTAPKLLIYVNDQRPSGVPDRFSGSKSGTSASLAITGVQAEDEADYYCQSYDRGTHPALLFGTGTKVTVLG"
18,0.000372,"SEQ ID NO: 518 (Y61, A at L50) (antibody, V domains shown) VH: QVQLVQSGGGVVQPGRSLRLSCAASGFTFSSYGMHWVRQAPGKGLEWVAFIRYDGSNKYYADSVKGRFTISRDNSKNTLYLQMKSLRAEDTAVYYCKTHGSHDNWGQGTMVTVSS VL: SYVLTQPPSVSGTPGQRVTISCSGGRSNIGSNTVKWYQQLPGTAPKLLIYANDQRPSGVPDRFSGSKSGTSASLAITGVQAEDEADYYCQSYDRGTHPALLFGTGTKVTVLG"
19,0.000733,"SEQ ID NO: 527 (Y61, Y at L53) (antibody, V domains shown) VH: QVQLVQSGGGVVQPGRSLRLSCAASGFTFSSYGMHWVRQAPGKGLEWVAFIRYDGSNKYYADSVKGRFTISRDNSKNTLYLQMKSLRAEDTAVYYCKTHGSHDNWGQGTMVTVSS VL: SYVLTQPPSVSGTPGQRVTISCSGGRSNIGSNTVKWYQQLPGTAPKLLIYGNDYRPSGVPDRFSGSKSGTSASLAITGVQAEDEADYYCQSYDRGTHPALLFGTGTKVTVLG"
20,0.0348,"SEQ ID NO: 525 (Y61, F at L50) (antibody, V domains shown) VH: QVQLVQSGGGVVQPGRSLRLSCAASGFTFSSYGMHWVRQAPGKGLEWVAFIRYDGSNKYYADSVKGRFTISRDNSKNTLYLQMKSLRAEDTAVYYCKTHGSHDNWGQGTMVTVSS VL: SYVLTQPPSVSGTPGQRVTISCSGGRSNIGSNTVKWYQQLPGTAPKLLIYFNDQRPSGVPDRFSGSKSGTSASLAITGVQAEDEADYYCQSYDRGTHPALLFGTGTKVTVLG"
